The target of this assay is T1, protocadherin-42 (human, UniProt Q08174 58-1060).
T1 construct: Full length human cDNA expressed in mouse L cells (pRC/RSV-pc42); tested on the transfected cells or in their extracts; also called pc42; human pc42
T1 sequence: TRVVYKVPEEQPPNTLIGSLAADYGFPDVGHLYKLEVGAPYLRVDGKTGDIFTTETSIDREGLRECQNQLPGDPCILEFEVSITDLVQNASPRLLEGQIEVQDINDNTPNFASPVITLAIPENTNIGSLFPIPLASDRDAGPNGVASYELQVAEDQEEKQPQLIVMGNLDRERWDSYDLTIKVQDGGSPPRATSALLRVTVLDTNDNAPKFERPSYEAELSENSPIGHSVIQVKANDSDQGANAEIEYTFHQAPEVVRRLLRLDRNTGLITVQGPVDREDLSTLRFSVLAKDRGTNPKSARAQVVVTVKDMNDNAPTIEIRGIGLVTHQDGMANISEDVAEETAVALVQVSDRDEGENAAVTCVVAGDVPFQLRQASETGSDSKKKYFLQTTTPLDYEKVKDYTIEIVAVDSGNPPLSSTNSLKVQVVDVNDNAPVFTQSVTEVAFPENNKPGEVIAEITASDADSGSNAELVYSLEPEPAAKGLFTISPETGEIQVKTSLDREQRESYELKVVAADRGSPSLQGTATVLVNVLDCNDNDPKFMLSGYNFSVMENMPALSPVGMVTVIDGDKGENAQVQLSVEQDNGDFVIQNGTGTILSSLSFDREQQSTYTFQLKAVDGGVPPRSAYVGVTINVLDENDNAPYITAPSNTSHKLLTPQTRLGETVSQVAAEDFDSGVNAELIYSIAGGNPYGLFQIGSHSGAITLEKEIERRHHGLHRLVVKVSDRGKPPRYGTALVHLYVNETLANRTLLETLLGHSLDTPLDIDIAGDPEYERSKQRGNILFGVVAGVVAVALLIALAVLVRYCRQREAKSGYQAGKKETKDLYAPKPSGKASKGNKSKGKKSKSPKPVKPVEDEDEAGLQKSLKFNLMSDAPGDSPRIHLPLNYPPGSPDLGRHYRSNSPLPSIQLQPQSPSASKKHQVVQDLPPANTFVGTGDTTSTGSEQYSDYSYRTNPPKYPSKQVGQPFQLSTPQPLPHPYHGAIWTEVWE
Put plainly: mixed cell aggregation assay, DiO-labelled pc43 transfectants with unlabelled pc42 transfectants. On the procedure:
The cell aggregation properties of the transfected L cells expressing protocadherin proteins were examined. Transfected L cells were cultured in Dulbecco's Modified Eagles Medium (DMEM) (Gibco, Grand Island, N.Y.) supplemented with 10% fetal bovine serum at 37° C. in 5% CO₂. Cells grown near confluence were treated with 0.01% trypsin in the presence of 1 mM EGTA for 25 minutes on a rotary shaker at 37° C. and collected by centrifugation. The cells were washed three times with Ca²⁺ free HEPES-buffered saline (HBS) after adding soybean trypsin inhibitor, and were resuspended in HBS containing 1% BSA. The cell aggregation assay [Urushihara et al., Dev. Biol., 70: 206-216 (1979)] was performed by incubating the resuspended cells in a 1:1 mixture of DMEM and HBS containing 1% BSA, 2 mM CaCl₂ and 20 μg/ml of deoxyribonucelease on a rotary shaker at 37° C. for 30 minutes to 6 hours.
This is in contrast to the cell aggregation that occurs with classic cadherins in similar experiments (Nagafuchi et al., supra, and Hatta et al., supra). […] Similar results were obtained when single cell suspensions of transfected cells were prepared by trypsin treatment in the presence of Ca²⁺. No re-aggregation was observed under the same conditions when untransfected L cells or L cells transfected with pRC/RSV vector alone were tested.

B1: protocadherin-43 (receptor)
chain: VIHYEIPEEREKGFAVGNVVANLGLDLGSLSARRFPVVSGASRRFFEVNRETGEMFVNDRLDREELCGTLPSCTVTLELVVENPLELFSVEVVIQDINDNNPAFPTQEMKLEISEAVAPGTRFPLESAHDPDLGSNSLQTYELSRNEYFALRVQTREDSTKYAELVLERALDREREPSLQLVLTALDGGTPALSASLPIHIKVLDANDNAPVFNQSLYRARVPGGCTSGTRVVQVLATDLDEGPNGEIIYSFGSHNRAGVRQLFALDLVTGMLTIKGRLDFEDTKLHEIYIQAKDKGANPEGAHCKVLVEVVDVNDNAPEITVTSVYSPVPEDASGTVIALLSVTDLDAGENGLVTCEVPPGLPFSLTSSLKNYFTLKTSADLDRETVPEYNLSITARDAGTPSLSALTIVRVQVSDINDNPPQSSQSSYDVYIEENNLPGAPILNLSVWDPDAPQNARLSFFLLEQGAETGLVGRYFTINRDNGIVSSLVPLDYEDRREFELTAHISDGGTPVLATNISVNIFVTDRNDNAPQVLYPRPGGSSVEMLPRGTSAGHLVSRVVGWDADAGHNAWLSYSLFGSPNQSLFAIGLHTGQISTARPVQDTDSPRQTLTVLIKDNGEPSLSTTATLTVSVTEDSPEARAEFPSGSAPREQKKNLTFYLLLSLILVSVGFVVTVFGVIIFKVYKWKQSRDLYRAPVSSLYRTPGPSLHADAVRGGLMSPHLYHQVYLTTDSRRSDPLLKKPGAASPLASRQNTLRSCDPVFYRQVLGAESAPPGQQAPPNTDWRFSQAQRPGTSGSQNGDDTGTWPNNQFDTEMLQAMILASASEAADGSSTLGGGAGTMGLSARYGPQFTLQHVPDYRQNVYIPGSNAH
notes: Full length human cDNA expressed in mouse L cells (pRC/RSV-pc43); tested on the transfected cells or in their extracts; also endogenous pc43 in human tissue sections; also called pc43; human pc43
For B1, the binding result is given as “no binding”.

These data come from patent publication US20060024291A1 (DOHENY EYE INSTITUTE, published 2006).
